Experimental data: the RNAGym collection of RNA variant scans (doi:10.1073/pnas.2313332121)
Variants at the floor of the assay were thinned out.

B1: TPR 5TU (parent)
chain: GGAUCUUCUCGAUCUAACAAAAAAGACAAAUCUGCCACAAAGCUUGAGAGCAUCUUCGGAUGCAGAGGCGGCAGCCUUCGGUGGCGCGAUAGCGCCAACGUUCUCAACUAUGACACGCAAAACGCGUGCUCCGUUGAAUGGAGUUUAUCAUG

Variants of: B1
Assay: polymerase ribozyme fitness, log enrichment relative to wild type (log ratio); higher = more active; in vitro selection for triplet polymerase activity
In short: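 For each subunit of a heterodimeric triplet polymerase ribozyme, a mutant library was built by PCR and transcribed, then taken through a single in vitro selection round in triplicate. Selection involved annealing to a biotinylated primer, the partner subunit and triplets, incubation frozen at −7 °C, gel excision of extended constructs, capture on streptavidin beads and RT-PCR. Genotypes were retained after Illumina sequencing of inputs and outputs only with ≥10 input reads and ≥1 read in each output. Fitness is defined as the logarithm of a genotype's enrichment relative to wild-type enrichment, using inverse-variance-weighted averages across replicates, with the logarithm taken to base 2.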

Compared with C8A C51A C57A G59A U61A G67C C95U C125U U134C U139A, A30U A41G A142G is higher in “polymerase ribozyme fitness (log ratio)” value: at most -4.2 for the first, -3.58 for the second.

Going from A24C C51U C54G G74U C85G A97U to A39U U55G G81U C103A, the “polymerase ribozyme fitness (log ratio)” value falls from -4.18 to at most -4.2.

Compared with G84A C87U C95G A142C, C85U A121C G141U is higher in “polymerase ribozyme fitness (log ratio)” value: -2.26 for the first, 2.08 for the second.

First: C131U U146C G152C
Second: A52G C54U C93A
The “polymerase ribozyme fitness (log ratio)” value of the first is higher: -1.2 for the first, -1.98 for the second.

Compared with G42U A91U, C96U G140C is higher in “polymerase ribozyme fitness (log ratio)” value: at most -4.2 for the first, -3.73 for the second.

Going from G65A U139C G141C to A20U A30C G70A, the “polymerase ribozyme fitness (log ratio)” value falls from -3.69 to at most -4.2.

First: U56A C114G
Second: A16G U31G G46A U55A C95G
The “polymerase ribozyme fitness (log ratio)” value of the first is higher: -3.1 for the first, at most -4.2 for the second.

First: G86U A98C U101C
Second: A16C A26G G86U
The “polymerase ribozyme fitness (log ratio)” value of the first is higher: -0.908 for the first, at most -4.2 for the second.

Going from G11C U56A C75U U145A to A3G U56A C96A U134A, the “polymerase ribozyme fitness (log ratio)” value falls from -1.61 to -3.26.

Compared with G58A U82G C96A A142G A147G, U4G C54G G80C G92U A115C is lower in “polymerase ribozyme fitness (log ratio)” value: -3.38 for the first, at most -4.2 for the second.

Compared with A49G G50C, U7C C8U U45A G68C C87G A91C is lower in “polymerase ribozyme fitness (log ratio)” value: -2.28 for the first, at most -4.2 for the second.

First: A37C A98U
Second: G50A G74A U78C A113G G124C
The “polymerase ribozyme fitness (log ratio)” value of the first is higher: 0.384 for the first, at most -4.2 for the second.

Going from G88C C105A G117C G141A A147U to U56A A89C, the “polymerase ribozyme fitness (log ratio)” value rises from at most -4.2 to -0.735.

Compared with U45A G83A A121U G141C U148G, U4C A24U U61A is higher in “polymerase ribozyme fitness (log ratio)” value: at most -4.2 for the first, -1.7 for the second.

Going from G11C C36G U56A C57U G59A C96G to U31C G81C C85U C99G, the “polymerase ribozyme fitness (log ratio)” value rises from at most -4.2 to -0.592.

C8A G42A A49C G83U C93A G94A and A24G C38U cannot be ordered by “polymerase ribozyme fitness (log ratio)” value: at most -4.2 for the first, at most -4.2 for the second.

Going from A16U A22U A52C C87A A107C C125A U134C to A17C G86U, the “polymerase ribozyme fitness (log ratio)” value rises from at most -4.2 to -0.8.

U53A U61G C99U G136A and G88A G126A are within 0.2 log units of each other in “polymerase ribozyme fitness (log ratio)” value: -3.67 for the first, -3.7 for the second.

G74U A107G and C69A U77C A98U A122U U146C U151A cannot be ordered by “polymerase ribozyme fitness (log ratio)” value: at most -4.2 for the first, at most -4.2 for the second.

Going from A17G C36U to C27A C36U G74C C75G G84U C93G A97C G117A, the “polymerase ribozyme fitness (log ratio)” value falls from -3.9 to at most -4.2.

U4G C36A U55A U61A C76U C87U and C8A A37C G59C C75A G92A cannot be ordered by “polymerase ribozyme fitness (log ratio)” value: at most -4.2 for the first, at most -4.2 for the second.

Compared with G92A C103A, A26U C27A A29U G34A U61A C76G is lower in “polymerase ribozyme fitness (log ratio)” value: -3.9 for the first, at most -4.2 for the second.

Going from G42U U55A to U61A U101A, the “polymerase ribozyme fitness (log ratio)” value rises from -4.17 to -1.08.

Compared with C85A G86U, G11A C96U C116U is higher in “polymerase ribozyme fitness (log ratio)” value: -3.2 for the first, -1.68 for the second.

Going from G141A U146C to C14A A39U A52U C87A C95U C96U G100U C125A, the “polymerase ribozyme fitness (log ratio)” value falls from 0.27 to at most -4.2.

A41G G70A C93U A98U and C75G C93A C108G C132A G140A G143A are within 0.2 log units of each other in “polymerase ribozyme fitness (log ratio)” value: -3.95 for the first, -4.12 for the second.

First: G58A C63U C93A C105A
Second: A12G C18G A21U G68C G83A A97U C125U G140U G143U
The “polymerase ribozyme fitness (log ratio)” value of the first is higher: -4.05 for the first, at most -4.2 for the second.

Going from A21C G25C C36G C93G A115U U134A U146A to A106C U134C, the “polymerase ribozyme fitness (log ratio)” value rises from at most -4.2 to 0.274.

First: A19C C35U A52C U53A C79A A97U A98G C118A U139G A147G
Second: C8U C116A
The “polymerase ribozyme fitness (log ratio)” value of the first is lower: at most -4.2 for the first, -2.08 for the second.

Going from U13G G84U U135A G136A to C35A U55A, the “polymerase ribozyme fitness (log ratio)” value falls from -2.14 to -2.64.

First: A23U C118U
Second: A39U G70A G88A U127A U144A
The “polymerase ribozyme fitness (log ratio)” value of the first is higher: -3.62 for the first, at most -4.2 for the second.

A66G A97U and U55A G58C G68U G81A A91U C96A cannot be ordered by “polymerase ribozyme fitness (log ratio)” value: at most -4.2 for the first, at most -4.2 for the second.

Going from G83A G141A to U139C, the “polymerase ribozyme fitness (log ratio)” value falls from 0.227 to -2.57.

A39U C87U G133U U135G and A20U C43A C69U A138G cannot be ordered by “polymerase ribozyme fitness (log ratio)” value: at most -4.2 for the first, at most -4.2 for the second.

First: A29C U55A
Second: U7C G50A G58A G68A A97C G141C U146A
The “polymerase ribozyme fitness (log ratio)” value of the first is higher: -3.74 for the first, at most -4.2 for the second.

U78A C93A G94U G140A G143A and A73G C149A cannot be ordered by “polymerase ribozyme fitness (log ratio)” value: at most -4.2 for the first, at most -4.2 for the second.

Going from C85G C99A to U9G A23U A26G A28G U61A G80A A120U G141U, the “polymerase ribozyme fitness (log ratio)” value falls from -3.3 to at most -4.2.

First: U4A U6A A40U G46C C96A C118A
Second: C27A C36G A91U C99U
The “polymerase ribozyme fitness (log ratio)” value of the first is higher: -3.94 for the first, at most -4.2 for the second.

U15G A29U C76A G83A and C51A A64G C87A G128U G140C cannot be ordered by “polymerase ribozyme fitness (log ratio)” value: at most -4.2 for the first, at most -4.2 for the second.

Compared with A23U C79U U101G G141C, U55A C85G C125U U144A is higher in “polymerase ribozyme fitness (log ratio)” value: at most -4.2 for the first, -3.47 for the second.

For A40C A150C, the “polymerase ribozyme fitness (log ratio)” value was -3.94.
